Data reported in patent US20230136228A1 (LAMKAP BIO ALPHA, published 2023).

T1: human CEACAM5 (carcinoembryonic antigen, CEA), cell surface (human, UniProt P06731 35-685)
T1 sequence (looked up): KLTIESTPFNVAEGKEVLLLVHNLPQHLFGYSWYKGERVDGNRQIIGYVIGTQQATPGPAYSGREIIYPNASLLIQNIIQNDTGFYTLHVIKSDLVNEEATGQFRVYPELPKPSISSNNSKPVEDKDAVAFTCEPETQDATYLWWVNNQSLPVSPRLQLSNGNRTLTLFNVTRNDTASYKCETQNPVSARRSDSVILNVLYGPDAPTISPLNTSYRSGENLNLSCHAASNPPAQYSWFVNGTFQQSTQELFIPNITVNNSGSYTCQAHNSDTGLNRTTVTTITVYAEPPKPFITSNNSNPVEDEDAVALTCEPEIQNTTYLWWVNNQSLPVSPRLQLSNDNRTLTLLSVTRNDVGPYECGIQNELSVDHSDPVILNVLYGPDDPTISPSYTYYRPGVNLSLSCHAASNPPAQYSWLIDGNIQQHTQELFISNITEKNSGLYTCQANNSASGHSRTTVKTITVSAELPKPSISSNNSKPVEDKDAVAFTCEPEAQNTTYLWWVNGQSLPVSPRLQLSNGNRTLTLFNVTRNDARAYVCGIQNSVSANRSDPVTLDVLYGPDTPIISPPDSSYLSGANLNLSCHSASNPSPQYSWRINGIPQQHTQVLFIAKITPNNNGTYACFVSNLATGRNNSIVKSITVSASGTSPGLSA

T2: human CEACAM1 (human, UniProt P13688 35-526)
T2 construct: whole, on cells
T2 sequence (looked up): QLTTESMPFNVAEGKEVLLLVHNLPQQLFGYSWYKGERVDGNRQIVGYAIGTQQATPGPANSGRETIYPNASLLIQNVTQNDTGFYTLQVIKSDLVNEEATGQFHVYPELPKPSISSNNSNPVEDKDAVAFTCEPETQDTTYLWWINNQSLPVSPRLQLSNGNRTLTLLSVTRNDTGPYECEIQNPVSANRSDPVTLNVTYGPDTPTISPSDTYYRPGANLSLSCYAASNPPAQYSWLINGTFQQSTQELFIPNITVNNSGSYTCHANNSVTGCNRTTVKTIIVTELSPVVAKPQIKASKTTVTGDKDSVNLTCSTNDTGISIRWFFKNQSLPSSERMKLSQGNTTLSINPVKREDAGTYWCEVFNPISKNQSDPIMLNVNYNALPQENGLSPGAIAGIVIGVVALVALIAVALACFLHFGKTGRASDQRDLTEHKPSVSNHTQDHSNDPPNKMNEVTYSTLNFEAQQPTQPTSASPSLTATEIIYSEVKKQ

T3: human CEACAM3 (human, UniProt P40198 35-252)
T3 construct: whole, on cells
T3 sequence (looked up): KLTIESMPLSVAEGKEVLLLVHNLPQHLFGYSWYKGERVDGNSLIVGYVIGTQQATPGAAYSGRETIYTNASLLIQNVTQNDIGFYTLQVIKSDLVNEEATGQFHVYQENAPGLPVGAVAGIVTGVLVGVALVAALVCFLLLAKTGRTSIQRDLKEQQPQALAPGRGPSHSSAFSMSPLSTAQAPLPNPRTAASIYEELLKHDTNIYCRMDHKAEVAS


What was measured:
[1] = target: T1, human CEACAM5 (carcinoembryonic …); assay: cell-based or functional assay
[2] = target: T2, human CEACAM1; assay: flow cytometry, transfected PEAK cells, 10 mcg/ml
Text: (§1) Vectors encoding the full-length version of human CEACAM 1, 3, 4, 5, 6, 7, 8, 18, 19, 20 and […] are used to express these proteins at the surface of PEAK and/or CHO cells as described in Example 1. Similarly, vectors encoding the full-length version of cyno CEACAM 5 and 6 are also used to express these proteins at the surface of PEAK and/or CHO cells. Non-transfected PEAK and/or CHO cells are used as negative control. Cells are harvested, counted, checked for viability and resuspended at 3×10⁶ cells/ml in FACS buffer (PBS 2% BSA, 0.1% NaN₃). 100 μl of the cell suspension are distributed in V-bottom 96-well plates (3×10⁵ cells/well). The supernatant is removed by centrifugation 3 minutes at 4° C., 1300 rpm and the cells incubated for 15 minutes at 4° C. with increasing concentrations of the antibody according to the invention. The antibodies carrying the anti-CEACAM5 arms to test are diluted in FACS buffer and the concentration range is 30 pM-500 nM. Cells are washed twice with cold FACS buffer and re-incubated for further 15 minutes at 4° C. with a compatible anti-human IgG secondary antibody. Cells are washed twice with cold FACS buffer and resuspended in 300 μl FACS buffer with 1:1500-diluted TOPRO-3 (Invitrogen). Fluorescence is measured using a FACSCalibur™ (BD Biosciences) or a Cytoflex Platform (Beckman Coulter). Dose-response binding curves are fitted using GraphPad Prism8 software. In the same manner, CEACAM1, CEACAM6 and other CEACAMs can be characterized.
(§2) For the bispecific antibodies AB17L3-1/N, AB71L3-1/N, AB72L3-1/N, AB73L3-1/N the MFI measured for binding to CEACAM5 transfected cells was found between 29000 and 41000 (Table 2). In contrast MFI found by using PEAK cells transfected with CEACAM 1,3,4,6,8 were found below 1000 with the only exception of a strong signal for AB72L3-1/N on CEACAM8 transfected cells. When MFI values obtained on transfected cells expressing any given CEACAM are divided by the values obtained on WT PEAK cells, “factors to PEAK WT” can be calculated (Table 3).

[3] = target: T3, human CEACAM3; assay: flow cytometry, transfected PEAK cells, 10 mcg/ml
Text: as §1, §2

[4] = target: T4, human CD3ε (human, UniProt P07766 23-207); assay: flow cytometry, primary CD4+ and CD8+ T-cells
T4 construct: whole, on cells; Present on cells as part of the CD3/TCR complex; also called CD3 epsilon
T4 sequence (P07766 23-207): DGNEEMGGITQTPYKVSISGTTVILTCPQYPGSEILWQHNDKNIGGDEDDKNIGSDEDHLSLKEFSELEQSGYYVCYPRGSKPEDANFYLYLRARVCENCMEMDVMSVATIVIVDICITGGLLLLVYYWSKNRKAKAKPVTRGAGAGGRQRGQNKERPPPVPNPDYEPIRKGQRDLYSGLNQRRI

Binder	Killing EC50, HPAFII cells (TDCC, LDH release) [1]	Killing EC50, LS174T cells (TDCC, LDH release) [1]	Killing EC50, MKN45 cells (TDCC, LDH release) [1]	MFI [2]	MFI [3]	binding result [4]
AB71L3-1/N (bispecific antibody, human IgG1, kappa, lambda, L234A L235A, Kappa-lambda body, lead optimization wave 2) heavy: EVQLVESGGGLVQPGGSLKLSCAASGFTFNTYAMNWVRQAPGKGLEWVGRIRSKYNNYATYYADSVKDRFTISRDDSKNTAYLQMNSLKTEDTAVYYCVRHGNFGNSYVSWFAYWGQGTLVTVSSASTKGPSVFPLAPSSKSTSGGTAALGCLVKDYFPEPVTVSWNSGALTSGVHTFPAVLQSSGLYSLSSVVTVPSSSLGTQTYICNVNHKPSNTKVDKRVEPKSCDKTHTCPPCPAPEAAGGPSVFLFPPKPKDTLMISRTPEVTCVVVDVSHEDPEVKFNWYVDGVEVHNAKTKPREEQYNSTYRVVSVLTVLHQDWLNGKEYKCKVSNKALAAPIEKTISKAKGQPREPQVYTLPPSREEMTKNQVSLTCLVKGFYPSDIAVEWESNGQPENNYKTTPPVLDSDGSFFLYSKLTVDKSRWQQGNVFSCSVMHEALHNHYTQKSLSLSPG light 1: EIVLTQSPATLSLSPGERATLSCRASQSVNSNLNWYQQKPGQAPRLLIYHSSNRPHGIPARFSGSGSGTDFTLTISSLEPEDFAVYYCQQFDYFKEHNTFGQGTKVEIKRTVAAPSVFIFPPSDEQLKSGTASVVCLLNNFYPREAKVQWKVDNALQSGNSQESVTEQDSKDSTYSLSSTLTLSKADYEKHKVYACEVTHQGLSSPVTKSFNRGEC light 2: QTVVTQEPSLTVSPGGTVTLTCRSSTGAVTTSNYANWFQQKPGQAPRGLIGGTNKRAPGTPARFSGSLLGGKAALTLSGAQPEDEAEYYCALWYKQRWVFGGGTKLTVLGQPKAAPSVTLFPPSSEELQANKATLVCLISDFYPGAVTVAWKADSSPVKAGVETTTPSKQSNNKYAASSYLSLTPEQWKSHRSYSCQVTHEGSTVEKTVAPTECS	0.16 nM	0.16 nM	0.09 nM	451 MFI	358 MFI	
AB73L3-1/N (bispecific antibody, human IgG1, kappa, lambda, L234A L235A, Kappa-lambda body, lead optimization wave 2) heavy: EVQLVESGGGLVQPGGSLKLSCAASGFTFNTYAMNWVRQAPGKGLEWVGRIRSKYNNYATYYADSVKDRFTISRDDSKNTAYLQMNSLKTEDTAVYYCVRHGNFGNSYVSWFAYWGQGTLVTVSSASTKGPSVFPLAPSSKSTSGGTAALGCLVKDYFPEPVTVSWNSGALTSGVHTFPAVLQSSGLYSLSSVVTVPSSSLGTQTYICNVNHKPSNTKVDKRVEPKSCDKTHTCPPCPAPEAAGGPSVFLFPPKPKDTLMISRTPEVTCVVVDVSHEDPEVKFNWYVDGVEVHNAKTKPREEQYNSTYRVVSVLTVLHQDWLNGKEYKCKVSNKALAAPIEKTISKAKGQPREPQVYTLPPSREEMTKNQVSLTCLVKGFYPSDIAVEWESNGQPENNYKTTPPVLDSDGSFFLYSKLTVDKSRWQQGNVFSCSVMHEALHNHYTQKSLSLSPG light 1: EIVLTQSPATLSLSPGERATLSCRASQSVNSNLNWYQQKPGQAPRLLIYHSNNRPHGIPARFSGSGSGTDFTLTISSLEPEDFAVYYCQQFDYFREYNTFGQGTKVEIKRTVAAPSVFIFPPSDEQLKSGTASVVCLLNNFYPREAKVQWKVDNALQSGNSQESVTEQDSKDSTYSLSSTLTLSKADYEKHKVYACEVTHQGLSSPVTKSFNRGEC light 2: QTVVTQEPSLTVSPGGTVTLTCRSSTGAVTTSNYANWFQQKPGQAPRGLIGGTNKRAPGTPARFSGSLLGGKAALTLSGAQPEDEAEYYCALWYKQRWVFGGGTKLTVLGQPKAAPSVTLFPPSSEELQANKATLVCLISDFYPGAVTVAWKADSSPVKAGVETTTPSKQSNNKYAASSYLSLTPEQWKSHRSYSCQVTHEGSTVEKTVAPTECS	0.13 nM	0.06 nM	0.03 nM	542 MFI	465 MFI	
AB72L3-1/N (bispecific antibody, human IgG1, kappa, lambda, L234A L235A, Kappa-lambda body, lead optimization wave 2) heavy: EVQLVESGGGLVQPGGSLKLSCAASGFTFNTYAMNWVRQAPGKGLEWVGRIRSKYNNYATYYADSVKDRFTISRDDSKNTAYLQMNSLKTEDTAVYYCVRHGNFGNSYVSWFAYWGQGTLVTVSSASTKGPSVFPLAPSSKSTSGGTAALGCLVKDYFPEPVTVSWNSGALTSGVHTFPAVLQSSGLYSLSSVVTVPSSSLGTQTYICNVNHKPSNTKVDKRVEPKSCDKTHTCPPCPAPEAAGGPSVFLFPPKPKDTLMISRTPEVTCVVVDVSHEDPEVKFNWYVDGVEVHNAKTKPREEQYNSTYRVVSVLTVLHQDWLNGKEYKCKVSNKALAAPIEKTISKAKGQPREPQVYTLPPSREEMTKNQVSLTCLVKGFYPSDIAVEWESNGQPENNYKTTPPVLDSDGSFFLYSKLTVDKSRWQQGNVFSCSVMHEALHNHYTQKSLSLSPG light 1: EIVLTQSPATLSLSPGERATLSCRASQSVNSNLNWYQQKPGQAPRLLIYHSTNRPRGIPARFSGSGSGTDFTLTISSLEPEDFAVYYCQQFDYFKEYNTFGQGTKVEIKRTVAAPSVFIFPPSDEQLKSGTASVVCLLNNFYPREAKVQWKVDNALQSGNSQESVTEQDSKDSTYSLSSTLTLSKADYEKHKVYACEVTHQGLSSPVTKSFNRGEC light 2: QTVVTQEPSLTVSPGGTVTLTCRSSTGAVTTSNYANWFQQKPGQAPRGLIGGTNKRAPGTPARFSGSLLGGKAALTLSGAQPEDEAEYYCALWYKQRWVFGGGTKLTVLGQPKAAPSVTLFPPSSEELQANKATLVCLISDFYPGAVTVAWKADSSPVKAGVETTTPSKQSNNKYAASSYLSLTPEQWKSHRSYSCQVTHEGSTVEKTVAPTECS	0.12 nM	0.11 nM	0.02 nM	652 MFI	474 MFI	binds
